We go through two molecules from paper PMC12142464, “High-light-inducible proteins control associations between chlorophyll synthase and the Photosystem II biogenesis factor Ycf39” (Plant Physiology, 2025).

“And” between values parts separate entries of the source, which are not always exact repeats. Identical values can stand only once.

B1: High-light-inducible protein D (native) (natural protein, UniProt P72932 1-57, looked up)
chain: MSEELQPNQTPVQEDPKFGFNNYAEKLNGRAAMVGFLLILVIEYFTNQGVLAWLGLR
notes: High-light-inducible protein HliD (6.5 kDa), Synechocystis sp; PCC 6803; also called HliD; ScpE; source: endogenous, Synechocystis solubilised membranes

Details in all cases: partners not purified
Assay [1] addresses T1, 3xFLAG-tagged chlorophyll synthase ChlG (Synechocystis sp. PCC 6803, UniProt Q55145 1-324).
T1 construct: Chlorophyll synthase ChlG, Synechocystis sp; PCC 6803, made instead of the native enzyme; Isolated complexes carry chlorophyll and carotenoids; also called f.ChlG; FLAG-tagged ChlG
T1 sequence (looked up): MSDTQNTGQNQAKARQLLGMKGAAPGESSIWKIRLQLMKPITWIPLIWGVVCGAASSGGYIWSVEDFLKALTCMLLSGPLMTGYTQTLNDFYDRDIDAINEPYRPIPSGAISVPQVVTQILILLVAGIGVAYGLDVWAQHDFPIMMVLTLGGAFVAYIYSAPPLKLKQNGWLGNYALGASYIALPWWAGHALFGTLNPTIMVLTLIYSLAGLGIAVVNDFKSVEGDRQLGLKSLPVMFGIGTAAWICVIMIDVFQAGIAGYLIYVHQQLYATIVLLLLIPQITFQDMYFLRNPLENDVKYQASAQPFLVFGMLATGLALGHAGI
The assay can be described thus: affinity purification with mass spectrometry; f.ChlG anti-FLAG pulldown from f.chlG/ΔchlG/ΔhliC cells grown under NL; quantitative MS with ^15N-labeled internal standard.

The target of assay [2] is T1, 3xFLAG-tagged chlorophyll synthase ChlG. The assay can be described thus: affinity purification with mass spectrometry; f.ChlG anti-FLAG pulldown from f.chlG/ΔchlG/ΔhliC cells, HL 16 h; quantitative MS with ^15N-labeled internal standard.
The target is the same in assay [3]. The assay can be described thus: co-IP; f.ChlG isolated with anti-FLAG resin from membranes solubilised with 1% n-dodecyl-β-D-maltoside and 1% glycol-diosgenin; eluate resolved by 2D CN (A8-35 amphipol)/SDS-PAGE, CBB stain; strains f.chlG/ΔchlG (HL 2 h), f.chlG/ΔchlG/ΔhliC (HL 2 h), f.chlG/ΔchlG/ΔhliC/Δycf39 (NL).
Assay [4] shares this target. Put plainly: affinity purification with mass spectrometry; f.ChlG anti-FLAG pulldown from f.chlG/ΔchlG cells, HL 16 h; quantitative MS with ^15N-labeled internal standard.
Assay [5] has the same target. Put plainly: affinity purification with mass spectrometry; f.ChlG anti-FLAG pulldown from f.chlG/ΔchlG cells grown under NL; quantitative MS with ^15N-labeled internal standard.
Assay [6] addresses B1. The assay can be described thus: co-IP; f.ChlG isolated with anti-FLAG resin from membranes solubilised with 1% n-dodecyl-β-D-maltoside and 1% glycol-diosgenin; eluate resolved by 2D CN (A8-35 amphipol)/SDS-PAGE, CBB stain; strains f.chlG/ΔchlG (HL 2 h), f.chlG/ΔchlG/ΔhliC (HL 2 h), f.chlG/ΔchlG/ΔhliC/Δycf39 (NL).

Turning to B1, the “stoichiometry N” value in assay [1] was 1.47 per 1 ChlG; in assay [2] it was 1.51 per 1 ChlG; in assay [3], ~1 HliD per f.ChlG (G-D2-G complex) and ~2 HliD per f.ChlG (G-D2 complex); in assay [4], 1.12 per 1 ChlG; in assay [5], 1.54 per 1 ChlG.

B2: High-light-inducible protein C (native) (natural protein, UniProt P73563 1-47, looked up)
chain: MNNENSKFGFTAFAENWNGRLAMIGFSSALILELVSGQGVLHFFGIL
notes: High-light-inducible protein HliC (5.2 kDa), Synechocystis sp; PCC 6803; also called HliC; ScpB; source: endogenous, Synechocystis solubilised membranes (high light)
As for B2, the “stoichiometry N” value in assay [6] is approximately 1 HliC per HliD.
